From patent US20140274782A1, “AFFINITY REAGENTS AND METHODS FOR DETECTION, PURIFICATION, AND PROTEOMIC ANALYSIS OF METHYLATED PROTEINS” (The Board of Trustees of the Leland Stanford Junior …, priority 2013, published 2014)

T1: G9a and GLP (Homo sapiens, UniProt Q96KQ7+Q9H9B1)
T1 sequence (Q96KQ7 2-1210 limits assumed): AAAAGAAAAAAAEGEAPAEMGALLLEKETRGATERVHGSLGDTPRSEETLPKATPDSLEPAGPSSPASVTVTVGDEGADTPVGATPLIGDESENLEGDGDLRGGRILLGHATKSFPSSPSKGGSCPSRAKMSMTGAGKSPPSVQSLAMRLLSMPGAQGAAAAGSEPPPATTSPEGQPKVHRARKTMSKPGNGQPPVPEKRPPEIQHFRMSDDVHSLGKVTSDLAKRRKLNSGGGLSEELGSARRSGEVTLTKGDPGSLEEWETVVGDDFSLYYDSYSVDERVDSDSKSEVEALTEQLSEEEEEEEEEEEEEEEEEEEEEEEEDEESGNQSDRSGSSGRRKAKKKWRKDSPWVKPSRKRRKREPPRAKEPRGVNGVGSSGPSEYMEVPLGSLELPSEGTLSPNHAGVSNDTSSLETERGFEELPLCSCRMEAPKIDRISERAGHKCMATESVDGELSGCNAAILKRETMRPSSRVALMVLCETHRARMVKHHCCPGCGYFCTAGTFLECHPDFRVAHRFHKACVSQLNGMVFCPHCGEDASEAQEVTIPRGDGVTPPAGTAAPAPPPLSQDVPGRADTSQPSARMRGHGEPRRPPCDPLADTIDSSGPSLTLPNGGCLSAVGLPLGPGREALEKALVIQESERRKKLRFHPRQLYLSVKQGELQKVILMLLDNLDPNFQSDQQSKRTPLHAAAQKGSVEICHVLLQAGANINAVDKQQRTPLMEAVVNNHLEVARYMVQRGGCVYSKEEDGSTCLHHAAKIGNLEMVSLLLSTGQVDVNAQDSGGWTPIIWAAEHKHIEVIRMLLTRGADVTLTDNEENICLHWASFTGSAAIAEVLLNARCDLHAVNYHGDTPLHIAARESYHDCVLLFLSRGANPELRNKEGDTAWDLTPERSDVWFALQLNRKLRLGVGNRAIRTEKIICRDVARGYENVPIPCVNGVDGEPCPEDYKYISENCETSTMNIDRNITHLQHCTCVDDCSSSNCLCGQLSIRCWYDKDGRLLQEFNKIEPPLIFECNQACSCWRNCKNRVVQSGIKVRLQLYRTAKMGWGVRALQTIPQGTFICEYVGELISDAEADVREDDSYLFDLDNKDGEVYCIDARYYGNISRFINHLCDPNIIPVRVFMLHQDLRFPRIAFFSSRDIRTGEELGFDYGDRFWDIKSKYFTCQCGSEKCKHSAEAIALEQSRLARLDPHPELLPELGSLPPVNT
T1 sequence (Q9H9B1 2-1298 limits assumed): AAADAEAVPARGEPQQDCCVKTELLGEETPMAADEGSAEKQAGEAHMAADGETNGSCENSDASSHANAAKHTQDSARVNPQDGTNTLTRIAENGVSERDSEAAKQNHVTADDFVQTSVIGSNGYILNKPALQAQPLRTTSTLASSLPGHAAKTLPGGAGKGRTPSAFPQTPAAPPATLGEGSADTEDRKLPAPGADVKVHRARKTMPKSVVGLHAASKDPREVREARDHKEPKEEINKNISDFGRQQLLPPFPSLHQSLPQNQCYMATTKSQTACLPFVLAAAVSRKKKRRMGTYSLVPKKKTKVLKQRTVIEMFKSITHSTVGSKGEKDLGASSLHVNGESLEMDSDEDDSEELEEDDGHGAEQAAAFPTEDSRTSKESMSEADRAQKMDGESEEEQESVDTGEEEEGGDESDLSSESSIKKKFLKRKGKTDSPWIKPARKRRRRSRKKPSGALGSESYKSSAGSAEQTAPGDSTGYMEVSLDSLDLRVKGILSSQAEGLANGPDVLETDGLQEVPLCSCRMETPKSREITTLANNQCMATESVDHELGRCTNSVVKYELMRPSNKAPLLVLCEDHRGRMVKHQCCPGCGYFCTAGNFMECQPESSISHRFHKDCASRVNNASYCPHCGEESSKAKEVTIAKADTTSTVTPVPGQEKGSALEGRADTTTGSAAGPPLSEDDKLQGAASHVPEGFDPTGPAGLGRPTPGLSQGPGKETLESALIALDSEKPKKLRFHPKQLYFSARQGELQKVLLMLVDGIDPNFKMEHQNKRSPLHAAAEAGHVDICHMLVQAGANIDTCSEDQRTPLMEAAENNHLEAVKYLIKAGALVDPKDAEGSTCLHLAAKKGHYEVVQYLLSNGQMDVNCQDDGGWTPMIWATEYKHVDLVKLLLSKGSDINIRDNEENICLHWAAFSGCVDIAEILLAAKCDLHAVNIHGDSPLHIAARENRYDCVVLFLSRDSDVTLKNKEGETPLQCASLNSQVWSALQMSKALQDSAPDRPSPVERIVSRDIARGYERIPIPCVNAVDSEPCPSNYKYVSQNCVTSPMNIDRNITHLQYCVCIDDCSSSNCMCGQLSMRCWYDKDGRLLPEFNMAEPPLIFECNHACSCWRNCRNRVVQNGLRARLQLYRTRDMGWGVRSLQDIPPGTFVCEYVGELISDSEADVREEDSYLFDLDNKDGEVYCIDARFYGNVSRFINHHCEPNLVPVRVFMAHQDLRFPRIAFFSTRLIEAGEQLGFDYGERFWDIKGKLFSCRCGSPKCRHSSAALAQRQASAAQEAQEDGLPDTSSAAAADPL

B1: IARS (protein, UniProt P41252 1-1262, looked up)
Isoleucine--tRNA ligase, …: MLQQVPENINFPAEEEKILEFWTEFNCFQECLKQSKHKPKFTFYDGPPFATGLPHYGHILAGTIKDIVTRYAHQSGFHVDRRFGWDCHGLPVEYEIDKTLGIRGPEDVAKMGITEYNNQCRAIVMRYSAEWKSTVSRLGRWIDFDNDYKTLYPQFMESVWWVFKQLYDKGLVYRGVKVMPFSTACNTPLSNFESHQNYKDVQDPSVFVTFPLEEDETVSLVAWTTTPWTLPSNLAVCVNPEMQYVKIKDVARGRLLILMEARLSALYKLESDYEILERFPGAYLKGKKYRPLFDYFLKCKENGAFTVLVDNYVKEEEGTGVVHQAPYFGAEDYRVCMDFNIIRKDSLPVCPVDASGCFTTEVTDFAGQYVKDADKSIIRTLKEQGRLLVATTFTHSYPFCWRSDTPLIYKAVPSWFVRVENMVDQLLRNNDLCYWVPELVREKRFGNWLKDARDWTISRNRYWGTPIPLWVSDDFEEVVCIGSVAELEELSGAKISDLHRESVDHLTIPSRCGKGSLHRISEVFDCWFESGSMPYAQVHYPFENKREFEDAFPADFIAEGIDQTRGWFYTLLVLATALFGQPPFKNVIVNGLVLASDGQKMSKRKKNYPDPVSIIQKYGADALRLYLINSPVVRAENLRFKEEGVRDVLKDVLLPWYNAYRFLIQNVLRLQKEEEIEFLYNENTVRESPNITDRWILSFMQSLIGFFETEMAAYRLYTVVPRLVKFVDILTNWYVRMNRRRLKGENGMEDCVMALETLFSVLLSLCRLMAPYTPFLTELMYQNLKVLIDPVSVQDKDTLSIHYLMLPRVREELIDKKTESAVSQMQSVIELGRVIRDRKTIPIKYPLKEIVVIHQDPEALKDIKSLEKYIIEELNVRKVTLSTDKNKYGIRLRAEPDHMVLGKRLKGAFKAVMTSIKQLSSEELEQFQKTGTIVVEGHELHDEDIRLMYTFDQATGGTAQFEAHSDAQALVLLDVTPDQSMVDEGMAREVINRIQKLRKKCNLVPTDEITVYYKAKSEGTYLNSVIESHTEFIFTTIKAPLKPYPVSPSDKVLIQEKTQLKGSELEITLTRGSSLPGPACAYVNLNICANGSEQGGVLLLENPKGDNRLDLLKLKSVVTSIFGVKNTELAVFHDETEIQNQTDLLSLSGKTLCVTAGSAPSLINSSSTLLCQYINLQLLNAKPQECLMGTVGTLLLENPLGQNGLTHQGLLYEAAKVFGLRSRKLKLFLNETQTQEITEDIPVKTLNMKTVYVSVLPTTADF
B2: DHX36 (protein, UniProt Q9H2U1 1-1008, looked up)
ATP-dependent DNA/RNA …: MSYDYHQNWGRDGGPRSSGGGYGGGPAGGHGGNRGSGGGGGGGGGGRGGRGRHPGHLKGREIGMWYAKKQGQKNKEAERQERAVVHMDERREEQIVQLLNSVQAKNDKESEAQISWFAPEDHGYGTEVSTKNTPCSENKLDIQEKKLINQEKKMFRIRNRSYIDRDSEYLLQENEPDGTLDQKLLEDLQKKKNDLRYIEMQHFREKLPSYGMQKELVNLIDNHQVTVISGETGCGKTTQVTQFILDNYIERGKGSACRIVCTQPRRISAISVAERVAAERAESCGSGNSTGYQIRLQSRLPRKQGSILYCTTGIILQWLQSDPYLSSVSHIVLDEIHERNLQSDVLMTVVKDLLNFRSDLKVILMSATLNAEKFSEYFGNCPMIHIPGFTFPVVEYLLEDVIEKIRYVPEQKEHRSQFKRGFMQGHVNRQEKEEKEAIYKERWPDYVRELRRRYSASTVDVIEMMEDDKVDLNLIVALIRYIVLEEEDGAILVFLPGWDNISTLHDLLMSQVMFKSDKFLIIPLHSLMPTVNQTQVFKRTPPGVRKIVIATNIAETSITIDDVVYVIDGGKIKETHFDTQNNISTMSAEWVSKANAKQRKGRAGRVQPGHCYHLYNGLRASLLDDYQLPEILRTPLEELCLQIKILRLGGIAYFLSRLMDPPSNEAVLLSIRHLMELNALDKQEELTPLGVHLARLPVEPHIGKMILFGALFCCLDPVLTIAASLSFKDPFVIPLGKEKIADARRKELAKDTRSDHLTVVNAFEGWEEARRRGFRYEKDYCWEYFLSSNTLQMLHNMKGQFAEHLLGAGFVSSRNPKDPESNINSDNEKIIKAVICAGLYPKVAKIRLNLGKKRKMVKVYTKTDGLVAVHPKSVNVEQTDFHYNWLIYHLKMRTSSIYLYDCTEVSPYCLLFFGGDISIQKDNDQETIAVDEWIVFQSPARIAHLVKELRKELDILLQEKIESPHPVDWNDTKSRDCAVLSAIIDLIKTQEKATPRNFPPRFQDGYYS
B3: RBM39 (protein, UniProt Q14498 2-530, looked up)
RNA-binding protein 39: ADDIDIEAMLEAPYKKDENKLSSANGHEERSKKRKKSKSRSRSHERKRSKSKERKRSRDRERKKSKSRERKRSRSKERRRSRSRSRDRRFRGRYRSPYSGPKFNSAIRGKIGLPHSIKLSRRRSRSKSPFRKDKSPVREPIDNLTPEERDARTVFCMQLAARIRPRDLEEFFSTVGKVRDVRMISDRNSRRSKGIAYVEFVDVSSVPLAIGLTGQRVLGVPIIVQASQAEKNRAAAMANNLQKGSAGPMRLYVGSLHFNITEDMLRGIFEPFGRIESIQLMMDSETGRSKGYGFITFSDSECAKKALEQLNGFELAGRPMKVGHVTERTDASSASSFLDSDELERTGIDLGTTGRLQLMARLAEGTGLQIPPAAQQALQMSGSLAFGAVAEFSFVIDLQTRLSQQTEASALAAAASVQPLATQCFQLSNMFNPQTEEEVGWDTEIKDDVIEECNKHGGVIHIYVDKNSAQGNVYVKCPSIAAAIAAVNALHGRWFAGKMITAAYVPLPTYHNLFPDSMTATQLLVPSRR

Legend:
G9a and GLP = molecular target: T1, G9a and GLP; test: Triple SILAC pull-down after UNC0638 treatment of 293T cells, DMSO/UNC0638 ratio of protein captured by 3×MBT; format: cell-based; set-up: endogenous in cells; host or cells: HEK 293T; details: all values in log base 2; for Relative to UNC0638 UNC Heavy / Relative to UNC0638 UNC Light: SILAC ratio DMSO relative to UNC0638, pull-down with 3xMBT; for Relative to UNC0638 UNC Heavy: UNC0638 in heavy SILAC media; for Relative to UNC0638 UNC Light: UNC0638 in light SILAC media; for Relative to UNC0638 Average: average of UNC Light and UNC Heavy experiments;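 as to all read-outs here: mass spectrometry (Q-Exactive) SILAC quantitation, DMSO/UNC0638 ratio computed after subtracting 3×MBTD355N mutant pull-down background, only proteins with at least twofold 3×MBT over mutant signal considered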
3×MBT domain of L3MBTL1 = test: Triple SILAC pull-down, 3xMBT/3xMBTD355N ratio (cytoplasmic, nuclear and chromatin fractions of 293T cells); format: binding, human; details: SILAC ratio 3xMBT vs 3xMBTD355N pull-down, 293T cells, all values in log base 2; for 3xMBT/D355N UNC Heavy: experiment with UNC0638 in heavy SILAC media; for 3xMBT/D355N UNC Light: experiment with UNC0638 in light SILAC media;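 as to all read-outs here: proteins quantified with MaxQuant, requiring at least two unique peptides and quantification in both label directions, normalized to the mean of proteins from a digested loading control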

| Molecule | Relative to UNC0638 UNC Heavy (G9a and GLP) | Relative to UNC0638 UNC Light (G9a and GLP) | Relative to UNC0638 Average (G9a and GLP) | 3xMBT/D355N UNC Heavy (3×MBT domain of L3MBTL1) | 3xMBT/D355N UNC Light (3×MBT domain of L3MBTL1) |
| --- | --- | --- | --- | --- | --- |
| B1 | −0.19 log base 2 | 0.21 log base 2 | 0.01 log base 2 | 2.10 log base 2 | 2.25 log base 2 |
| B2 | 0.19 log base 2 | −0.24 log base 2 | −0.02 log base 2 | 1.95 log base 2 | 2.83 log base 2 |
| B3 | 0.03 log base 2 | −0.03 log base 2 | 0.00 log base 2 | 2.04 log base 2 | 0.93 log base 2 |
